Source: patent publication US20170327594A1 (UNIVERSIT T STUTTGART, published 2017)

T1: TNFR2-Fc fusion protein (Enbrel) (UniProt P20333 23-257)
T1 construct: Commercial product Enbrel, coated at 1 ug/ml; not shown: Fc part of Enbrel
T1 sequence (looked up): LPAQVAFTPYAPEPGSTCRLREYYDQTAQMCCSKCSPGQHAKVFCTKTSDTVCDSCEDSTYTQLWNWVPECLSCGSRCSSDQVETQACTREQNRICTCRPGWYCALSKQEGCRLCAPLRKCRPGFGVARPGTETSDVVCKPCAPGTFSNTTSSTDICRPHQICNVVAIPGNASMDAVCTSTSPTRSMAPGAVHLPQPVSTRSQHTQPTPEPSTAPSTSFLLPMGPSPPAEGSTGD

T2: CEA (UniProt P06731 35-685, limits assumed)
T2 construct: also called immobilized CEA; carcinoembryonic antigen
T2 sequence (looked up): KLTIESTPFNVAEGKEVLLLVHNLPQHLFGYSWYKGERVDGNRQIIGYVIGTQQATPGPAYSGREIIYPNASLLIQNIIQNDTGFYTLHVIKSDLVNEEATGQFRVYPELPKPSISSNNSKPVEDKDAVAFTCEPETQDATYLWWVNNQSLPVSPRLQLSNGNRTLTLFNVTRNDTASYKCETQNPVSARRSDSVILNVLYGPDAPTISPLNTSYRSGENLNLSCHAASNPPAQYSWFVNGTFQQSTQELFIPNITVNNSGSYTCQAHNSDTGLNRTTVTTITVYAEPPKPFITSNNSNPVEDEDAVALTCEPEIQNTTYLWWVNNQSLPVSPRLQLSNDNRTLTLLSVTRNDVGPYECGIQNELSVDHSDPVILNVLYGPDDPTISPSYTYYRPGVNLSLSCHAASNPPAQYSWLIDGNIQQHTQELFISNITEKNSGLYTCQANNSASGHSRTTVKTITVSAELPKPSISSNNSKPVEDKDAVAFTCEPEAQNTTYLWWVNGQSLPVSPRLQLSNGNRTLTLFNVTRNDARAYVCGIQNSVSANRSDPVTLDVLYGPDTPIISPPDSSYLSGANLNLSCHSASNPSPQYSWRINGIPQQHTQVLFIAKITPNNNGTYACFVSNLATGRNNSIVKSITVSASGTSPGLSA

B1: EHD2-scTNFR2-L28aa (ligand)
chain: DAAQPAGGGAAAHHHHHHGGTGGGGSGGKLGGSGGDFTPPTVKILQSSCDGGGHFPPTIQLLCLVSGYTPGTINITWLEDGQVMDVDLSTASTTQEGELASTQSELTLSQKHWLSDRTYTCQVTYQGHTFEDSTKKCADSNGGGSGGGSGGGSGGGSGGGSGGSEFLASSRTPSDKPVAHVVANPQAEGQLQWLNRRANALLANGVELRDNQLVVPSEGLYLIYSQVLFKGQGCPSTHVLLTHTISRIAVSYQTKVNLLSAIKSPCQRETPEGAEAKPWYEPIYLGGVFQLEKGDRLSAEINRPDYLNFRESGQVYFGIIALGGGGSSSRTPSDKPVAHVVANPQAEGQLQWLNRRANALLANGVELRDNQLVVPSEGLYLIYSQVLFKGQGCPSTHVLLTHTISRIAVSYQTKVNLLSAIKSPCQRETPEGAEAKPWYEPIYLGGVFQLEKGDRLSAEINRPDYLNFRESGQVYFGIIALGGGGSSSRTPSDKPVAHVVANPQAEGQLQWLNRRANALLANGVELRDNQLVVPSEGLYLIYSQVLFKGQGCPSTHVLLTHTISRIAVSYQTKVNLLSAIKSPCQRETPEGAEAKPWYEPIYLGGVFQLEKGDRLSAEINRPDYLNFRESGQVYFGIIAL
notes: Dimer of the TNFR2-selective single-chain TNF mutant (D143N/A145R) fused to EHD2, 28 aa linker; also called EHD2-scTNFR2 with a 28 aa linker between EHD2 and scTNFR2
B2: Anti-CEA scFv-EHD2 (scFv)
chain: DAAQPAMAQVKLQQSGAELVRSGTSVKLSCTASGFNIKDSYMHWLRQGPEQGLEWIGWIDPENGDTEYAPKFQGKATFTTDTSSNTAYLQLSSLTSEDTAVYYCNEGTPTGPYYFDYWGQGTTVTVSSGGGGSGGGGSGGGGSDIELTQSPAIMSASPGEKVTITCSASSSVSYMHWFQQKPGTSPKLWIYSTSNLASGVPARFSGSGSGTSYSLTISRMEAEDAATYYCQQRSSYPLTFGAGTKLELKRGSLGGSGGDFTPPTVKILQSSCDGGGHFPPTIQLLCLVSGYTPGTINITWLEDGQVMDVDLSTASTTQEGELASTQSELTLSQKHWLSDRTYTCQVTYQGHTFEDSTKKCADSNGGGSGGGTGSEFAAAHHHHHH
notes: Bivalent homodimer, His6; also called scFv-EHD2 fusion protein directed against CEA
B3: EHD2-scTNFR2-L16aa (ligand)
chain: DAAQPAGGGAAAHHHHHHGGTGGGGSGGKLGGSGGDFTPPTVKILQSSCDGGGHFPPTIQLLCLVSGYTPGTINITWLEDGQVMDVDLSTASTTQEGELASTQSELTLSQKHWLSDRTYTCQVTYQGHTFEDSTKKCADSNGGGSGGGTGSEFLASSRTPSDKPVAHVVANPQAEGQLQWLNRRANALLANGVELRDNQLVVPSEGLYLIYSQVLFKGQGCPSTHVLLTHTISRIAVSYQTKVNLLSAIKSPCQRETPEGAEAKPWYEPIYLGGVFQLEKGDRLSAEINRPDYLNFRESGQVYFGIIALGGGGSSSRTPSDKPVAHVVANPQAEGQLQWLNRRANALLANGVELRDNQLVVPSEGLYLIYSQVLFKGQGCPSTHVLLTHTISRIAVSYQTKVNLLSAIKSPCQRETPEGAEAKPWYEPIYLGGVFQLEKGDRLSAEINRPDYLNFRESGQVYFGIIALGGGGSSSRTPSDKPVAHVVANPQAEGQLQWLNRRANALLANGVELRDNQLVVPSEGLYLIYSQVLFKGQGCPSTHVLLTHTISRIAVSYQTKVNLLSAIKSPCQRETPEGAEAKPWYEPIYLGGVFQLEKGDRLSAEINRPDYLNFRESGQVYFGIIAL
notes: Dimer of the TNFR2-selective single-chain TNF mutant (D143N/A145R) fused to EHD2, 16 aa linker; also called EHD2-scTNFR2 with a 16 aa linker between EHD2 and scTNFR2
B4: Anti-CEAxCD3 scDb-EHD2 (bispecific antibody)
chain: DAAQPAMAQVKLQQSGAELVRSGTSVKLSCTASGFNIKDSYMHWLRQGPEQGLEWIGWIDPENGDTEYAPKFQGKATFTTDTSSNTAYLQLSSLTSEDTAVYYCNEGTPTGPYYFDYWGQGTTVTVSSGGGGSDIQMTQSPSSLSASVGDRVTITCRASQDIRNYLNWYQQKPGKAPKLLIYYTSRLESGVPSRFSGSGSGTDYTLTISSLQPEDFATYYCQQGNTLPWTFGQGTKVEIKRGGGGSGGRASGGGGSEVQLVESGGGLVQPGGSLRLSCAASGYSFTGYTMNWVRQAPGKGLEWVALINPYKGVSTYNQKFKDRFTISVDKSKNTAYLQMNSLRAEDTAVYYCARSGYYGDSDWYFDVWGQGTLVTVSSGGGGSDIELTQSPAIMSASPGEKVTITCSASSSVSYMHWFQQKPGTSPKLWIYSTSNLASGVPARFSGSGSGTSYSLTISRMEAEDAATYYCQQRSSYPLTFGAGTKLELKRGSLGGSGGDFTPPTVKILQSSCDGGGHFPPTIQLLCLVSGYTPGTINITWLEDGQVMDVDLSTASTTQEGELASTQSELTLSQKHWLSDRTYTCQVTYQGHTFEDSTKKCADSNGGGSGGGTGSEFAAAHHHHHH
notes: Homodimer: scDb against CEA and human CD3 at the N-terminus of EHD2, His6; also called bispecific single-chain diabody (scDb)-EHD2 fusion protein
B5: MHD2-scTNFR2 (ligand)
chain: DAAQPAGGGAAAHHHHHHGGTGGGGSGGKLGGSGGAELPPKVSVFVPPRDGFFGNPRKSKLICQATGFSPRQIQVSWLREGKQVGSGVTTDQVQAEAKESGPTTYKVTSTLTIKESDWLGQSMFTCRVDHRGLTFQQNASSMCVPDGGGSGGGTGSEFLASSRTPSDKPVAHVVANPQAEGQLQWLNRRANALLANGVELRDNQLVVPSEGLYLIYSQVLFKGQGCPSTHVLLTHTISRIAVSYQTKVNLLSAIKSPCQRETPEGAEAKPWYEPIYLGGVFQLEKGDRLSAEINRPDYLNFRESGQVYFGIIALGGGGSSSRTPSDKPVAHVVANPQAEGQLQWLNRRANALLANGVELRDNQLVVPSEGLYLIYSQVLFKGQGCPSTHVLLTHTISRIAVSYQTKVNLLSAIKSPCQRETPEGAEAKPWYEPIYLGGVFQLEKGDRLSAEINRPDYLNFRESGQVYFGIIALGGGGSSSRTPSDKPVAHVVANPQAEGQLQWLNRRANALLANGVELRDNQLVVPSEGLYLIYSQVLFKGQGCPSTHVLLTHTISRIAVSYQTKVNLLSAIKSPCQRETPEGAEAKPWYEPIYLGGVFQLEKGDRLSAEINRPDYLNFRESGQVYFGIIAL
B6: EHD2-scTRAIL (ligand)
chain: DYKDDDDKGGGGSAAQPADFTPPTVKILQSSCDGGGHFPPTIQLLCLVSGYTPGTINITWLEDGQVMDVDLSTASTTQEGELASTQSELTLSQKHWLSDRTYTCQVTYQGHTFEDSTKKCADSNGGSGGEFTRGTSEETISTVQEKQQNISPLVRERGPQRVAAHITGTRGRSNTLSSPNSKNEKALGRKINSWESSRSGHSFLSNLHLRNGELVIHEKGFYYIYSQTYFRFQEEIKENTKNDKQMVQYIYKYTSYPDPILLMKSARNSCWSKDAEYGLYSIYQGGIFELKENDRIFVSVTNEHLIDMDHEASFFGAFLVGGGGSGGGSTSEETISTVQEKQQNISPLVRERGPQRVAAHITGTRGRSNTLSSPNSKNEKALGRKINSWESSRSGHSFLSNLHLRNGELVIHEKGFYYIYSQTYFRFQEEIKENTKNDKQMVQYIYKYTSYPDPILLMKSARNSCWSKDAEYGLYSIYQGGIFELKENDRIFVSVTNEHLIDMDHEASFFGAFLVGGGGSGGGSTSEETISTVQEKQQNISPLVRERGPQRVAAHITGTRGRSNTLSSPNSKNEKALGRKINSWESSRSGHSFLSNLHLRNGELVIHEKGFYYIYSQTYFRFQEEIKENTKNDKQMVQYIYKYTSYPDPILLMKSARNSCWSKDAEYGLYSIYQGGIFELKENDRIFVSVTNEHLIDMDHEASFFGAFLVG
notes: Bivalent homodimer of single-chain TRAIL at the C-terminus of EHD2, FLAG-tagged

Key:
[1] = target: T1, TNFR2-Fc fusion protein (Enbrel); experiment: ELISA on coated TNFR2-Fc (Enbrel)
Procedure: FIG. 36: a-c) Purified TNF variants (a: MHD2-scTNFR2, b: EHD2-scTNFR2 with a 16 aa linker between EHD2 and scTNFR2 as well as c: EHD2-scTNFR2 with a 28 aa linker between EHD2 and scTNFR2) were analyzed by 8% SDS-PAGE under reducing (+2-ME) or non-reducing (−2-ME) conditions and stained with Coomassie. d) Binding studies with TNFR2-Fc fusion protein. Plates were coated with 1 μg/ml TNFR2-Fc fusion protein (Enbrel). TNF fusion proteins were incubated for 1 h at RT and bound TNF fusion proteins were detected using HRP-conjugated anti-TNF antibodies and TMB substrate (n=2).

CEA = target: T2, CEA; experiment: ELISA on immobilized CEA
Excerpt: Bound antibodies were detected with an HRP-conjugated anti-His-tag antibody.
A bispecific single-chain diabody (scDb)-EHD2 fusion protein was generated by fusing a scDb directed against CEA and human CD3 to the N-terminus of the EHD2 (FIG. 27a, b). The construct was cloned into mammalian expression vector pSecTagA and produced in stably transfected HEK293 cells. Protein was purified from the cell culture supernatant by immobilized metal affinity chromatography.

[2] = target: T3, recombinant TRAIL-R1 (receptor-Fc fusion protein) (UniProt O00220 24-239, limits assumed); experiment: ELISA on recombinant receptor-Fc
T3 construct: also called TRAIL receptor 1; not shown: Fc part

EGFR-Fc fusion protein = target: T4, EGFR-Fc fusion protein (UniProt P00533 25-645, limits assumed); experiment: ELISA on immobilized EGFR-Fc
T4 construct: extracellular domain; also called Fc fusion protein of the extracellular region of EGFR; immobilized EGFR; not shown: Fc part

HER2-Fc fusion protein = target: T5, HER2-Fc fusion protein (UniProt P04626 23-652, limits assumed); experiment: ELISA on immobilized HER2-Fc
T5 construct: extracellular domain; also called Fc fusion protein of the extracellular region of HER2; not shown: Fc part

Binder	binding result [1]	binding result (CEA)	other results
B1	binds	–	–
B2	–	binds	–
B3	binds	–	–
B4	–	binds	–
B5	binds	–	–
B6	–	–	binding result [2]: binds; binding result (EGFR-Fc fusion protein): no binding; binding result (HER2-Fc fusion protein): no binding
